Literature values in US20060222641A1, “Method and composition for preventing or reducing edema, deep vein thrombosis and/or pulmonary embolism” (priority 2003, published 2006).

Tested on: fibrinolytic activity in the plasma
Details: oral administration

B1: nattokinase: serine proteinase of approximately 275 amino acids, approximately 27.7 kDa, fibrinolytic enzyme from natto (Bacillus subtilis) (protein)
chain: AQSVPYGISQIKAPALHSQGYTGSNVKVAVIDSGIDSSHPDLNVRGGASFVPSETNPYQDGSSHGTHVAGTIAALNNSIGVLGVAPSASYAVKVLDSTGSGQYSWIINGIEWAISNNMGVINMSLGGPSGSTALKTVVDKAVSSGIVVAAAAGNEGSSGSSSTVGYPAKYPSTIAVGAVNSSNQRASFSSAGSELDVMAPGVSIQSTLPGGTYGAYNGTSMATPHVAGAAALILSKHPTWTNAQVRDRLESTATYLGNSFYYGKGLINVQAAAQ
modifications: Bacillus Subtilis
  Fibrinolytic activity in the plasma: significant enhancement
